Experimental data as given in article PMC2855743 (Journal of molecular biology, 2010).
Like-named read-outs stand apart in the source and are kept apart here.

T1: ComAC (ComA C-terminal DNA-binding domain) (Bacillus subtilis, UniProt P14204 146-214)
T1 sequence: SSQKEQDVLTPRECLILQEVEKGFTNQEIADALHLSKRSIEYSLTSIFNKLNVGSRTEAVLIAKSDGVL


Assays:
[1] = biological target: T1, ComAC (ComA C-terminal DNA-binding …); assay: SPR
SEC = biological target: the molecule itself; assay: SEC
[2] = biological target: T1, ComAC (ComA C-terminal DNA-binding …); assay: SPR; remark: listed apart in the source

| Binder | Kd [1] | stoichiometry N (SEC) | also measured |
| --- | --- | --- | --- |
| Consensus RE3 (dsDNA) DNA 1: TTTCGGCATCCCGCATGAAACTTTGCGG DNA 2: CCGCAAAGTTTCATGCGGGATGCCGAAA | 4.94 nM | – | – |
| N-terminal domain of competence protein A (ComAN, residues 1-126) (domain or fragment, Bacillus subtilis, UniProt P14204 1-126, looked up) MKKILVIDDHPAVMEGTKTILETDSNLSVDCLSPEPSEQFIKQHDFSSYDLILMDLNLGGEVNGMELSKQILQENPHCKIIVYTGYEVEDYFEEAIRAGLHGAISKTESKEKITQYIYHVLNGEIL | – | 2 | – |
| N-terminal domain of competence protein A with asparagine at position 55 (ComAN-D55N, residues 1-126) (domain or fragment, Bacillus subtilis, UniProt P14204 1-126, looked up) MKKILVIDDHPAVMEGTKTILETDSNLSVDCLSPEPSEQFIKQHDFSSYDLILMNLNLGGEVNGMELSKQILQENPHCKIIVYTGYEVEDYFEEAIRAGLHGAISKTESKEKITQYIYHVLNGEIL | – | 2 | – |
| Full-length competence protein A (ComAFL) (natural protein, Bacillus subtilis, UniProt P14204 1-214, looked up) MKKILVIDDHPAVMEGTKTILETDSNLSVDCLSPEPSEQFIKQHDFSSYDLILMDLNLGGEVNGMELSKQILQENPHCKIIVYTGYEVEDYFEEAIRAGLHGAISKTESKEKITQYIYHVLNGEILVDFAYFKQLMTQQKTKPAPSSQKEQDVLTPRECLILQEVEKGFTNQEIADALHLSKRSIEYSLTSIFNKLNVGSRTEAVLIAKSDGVL | – | 2 | – |
| Wild type srfA (dsDNA) DNA 1: TTTCGGCATCCCGCATGAAACTTTTCAC DNA 2: GTGAAAAGTTTCATGCGGGATGCCGAAA | 9.59 nM | – | – |
| Consensus RE1-RE3 (dsDNA) DNA 1: TTGCGGCATCCCGCAAGAAACTTTGCGG DNA 2: CCGCAAAGTTTCTTGCGGGATGCCGCAA | – | – | Kd [2]: 11.3 nM |
